Biological target: wild-type EGFR kinase domain (residues 672-998 of human EGFR) with N-terminal 6-His tag, linker and TEV site (human, UniProt P00533 672-998)
Assay: cell-based or functional assay

Binder: SYLNGVMPPTQSFAPDPKYVSSKAL [25-residue MIG6 peptide (residues 340-364)]
- IC50, inhibition of activated EGFR kinase: ~100 µM
